Reference: patent publication US11130803B2, “Isoform-selective TGFβ1 inhibitors and use thereof” (Scholar Rock, Inc., priority 2018, dated 2021)
Read-outs that look alike come from different tables or passages of the source.

Experiments:
[1] = target: T1, recombinant human GARP-proTGFβ1 complex (Homo sapiens, UniProt P01137); assay: Octet (Biolayer Interferometry) in vitro kinetic binding; conditions: in M
T1 construct: made in house
Summary of the method: (§1)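 Antibody binding kinetics (KD) were determined by biolayer interferometry (Octet QKe) using streptavidin-coated biosensors. Biotinylated human presenting molecule–proTGFβ1 complexes were presented at […].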

[2] = target: T2, recombinant human LRRC33-proTGFβ1 complex (Homo sapiens, UniProt P01137); assay: as above; conditions: in M
T2 construct: made in house
Summary of the method: as §1

[3] = target: T3, recombinant human LTBP3-proTGFβ1 complex (Homo sapiens, UniProt P01137); assay: as above; conditions: in M
T3 construct: made in house; host or cells: Expi293F cells, transient co-transfection
Summary of the method: as §1

[4] = target: T4, recombinant human LTBP1-proTGFβ1 complex (Homo sapiens, UniProt P01137); assay: as above; conditions: in M
T4 construct: made in house; host or cells: Expi293F cells, transient co-transfection
Summary of the method: as §1

[5] = system: matrix-associated (LTBP1/LTBP3) and cell-associated (GARP/LRRC33) proTGFβ1 complexes; assay: Octet: average KD and fold bias, matrix- vs cell-associated complexes; type: binding, human; conditions: for Kd: average KD of (E) and (F), cell-associated complexes, read-out: (G) Cell AVRG; for (H) G/D (fold bias): ratio of average KD cell-associated / matrix-associated
Summary of the method: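 Monoclonal antibodies were measured for binding affinity, expressed as KD, to cell-surface or cell-associated proTGFβ1 complexes (GARP and LRRC33). The KD values for the two complexes were averaged to give one value for cell-associated affinity. That average was then divided by the matrix-associated average to express fold bias between the complex types.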

[6] = system: matrix-associated (LTBP1/LTBP3) and cell-associated (GARP/LRRC33) proTGFβ1 complexes; assay: as above; type: binding, human; conditions: average KD of (B) and (C), read-out: (D) ECM AVRG

T2 sequence (P01137 30-390): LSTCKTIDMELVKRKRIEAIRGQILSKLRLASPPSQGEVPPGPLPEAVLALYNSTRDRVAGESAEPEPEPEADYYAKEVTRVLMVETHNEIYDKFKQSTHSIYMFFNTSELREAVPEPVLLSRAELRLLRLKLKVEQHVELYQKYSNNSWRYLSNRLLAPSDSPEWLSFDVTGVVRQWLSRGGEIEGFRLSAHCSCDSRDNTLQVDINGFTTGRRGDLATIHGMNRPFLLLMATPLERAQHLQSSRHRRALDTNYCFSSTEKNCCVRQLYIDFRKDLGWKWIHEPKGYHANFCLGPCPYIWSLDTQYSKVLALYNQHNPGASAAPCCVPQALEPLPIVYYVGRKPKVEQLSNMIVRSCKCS
T2 sequence (Q86YC3 19-650 partner limits assumed): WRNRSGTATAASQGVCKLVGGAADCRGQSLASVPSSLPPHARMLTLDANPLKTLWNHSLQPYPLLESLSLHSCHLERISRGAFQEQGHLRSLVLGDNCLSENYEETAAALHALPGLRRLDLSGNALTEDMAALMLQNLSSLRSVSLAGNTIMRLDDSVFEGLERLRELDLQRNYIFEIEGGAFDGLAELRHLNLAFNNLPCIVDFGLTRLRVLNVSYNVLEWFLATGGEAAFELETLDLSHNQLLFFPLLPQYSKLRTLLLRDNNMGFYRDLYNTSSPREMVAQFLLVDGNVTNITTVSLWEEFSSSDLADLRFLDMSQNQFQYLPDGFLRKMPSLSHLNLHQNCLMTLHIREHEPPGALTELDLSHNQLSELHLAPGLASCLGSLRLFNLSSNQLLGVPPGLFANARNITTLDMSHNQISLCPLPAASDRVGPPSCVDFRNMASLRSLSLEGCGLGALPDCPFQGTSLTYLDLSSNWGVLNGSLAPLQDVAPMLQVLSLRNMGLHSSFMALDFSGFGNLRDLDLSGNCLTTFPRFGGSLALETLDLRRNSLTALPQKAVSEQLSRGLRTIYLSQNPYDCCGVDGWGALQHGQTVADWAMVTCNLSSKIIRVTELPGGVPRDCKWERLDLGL
T1 sequence (P01137 30-390): as the sequence (P01137 30-390) above
T1 sequence (Q14392 20-627 partner limits assumed): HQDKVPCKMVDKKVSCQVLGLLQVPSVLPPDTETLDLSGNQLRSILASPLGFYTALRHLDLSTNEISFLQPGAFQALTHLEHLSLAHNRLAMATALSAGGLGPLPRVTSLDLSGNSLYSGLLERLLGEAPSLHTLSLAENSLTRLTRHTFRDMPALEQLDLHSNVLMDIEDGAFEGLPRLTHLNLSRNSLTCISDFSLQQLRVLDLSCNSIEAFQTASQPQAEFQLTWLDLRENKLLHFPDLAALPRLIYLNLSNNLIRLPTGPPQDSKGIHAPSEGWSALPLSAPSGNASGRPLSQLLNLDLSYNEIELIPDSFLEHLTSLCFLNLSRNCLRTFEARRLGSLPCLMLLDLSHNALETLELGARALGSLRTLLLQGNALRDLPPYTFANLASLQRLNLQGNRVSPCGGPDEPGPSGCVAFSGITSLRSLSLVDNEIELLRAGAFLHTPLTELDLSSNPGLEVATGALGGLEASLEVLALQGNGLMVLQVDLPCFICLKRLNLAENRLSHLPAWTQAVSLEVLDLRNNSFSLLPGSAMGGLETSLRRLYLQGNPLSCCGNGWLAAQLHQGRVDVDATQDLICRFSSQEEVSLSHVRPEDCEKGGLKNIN
T3 sequence (P01137 30-390): as the sequence (P01137 30-390) above
T3 sequence (Q9NS15 866-1039 partner limits assumed): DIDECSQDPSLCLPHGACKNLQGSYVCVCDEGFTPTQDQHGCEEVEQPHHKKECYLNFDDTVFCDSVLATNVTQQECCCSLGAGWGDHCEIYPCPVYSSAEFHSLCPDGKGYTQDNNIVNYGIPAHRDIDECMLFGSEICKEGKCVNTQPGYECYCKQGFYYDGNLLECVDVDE
T4 sequence (P01137 30-390): as the sequence (P01137 30-390) above
T4 sequence (Q14766 873-1507 partner): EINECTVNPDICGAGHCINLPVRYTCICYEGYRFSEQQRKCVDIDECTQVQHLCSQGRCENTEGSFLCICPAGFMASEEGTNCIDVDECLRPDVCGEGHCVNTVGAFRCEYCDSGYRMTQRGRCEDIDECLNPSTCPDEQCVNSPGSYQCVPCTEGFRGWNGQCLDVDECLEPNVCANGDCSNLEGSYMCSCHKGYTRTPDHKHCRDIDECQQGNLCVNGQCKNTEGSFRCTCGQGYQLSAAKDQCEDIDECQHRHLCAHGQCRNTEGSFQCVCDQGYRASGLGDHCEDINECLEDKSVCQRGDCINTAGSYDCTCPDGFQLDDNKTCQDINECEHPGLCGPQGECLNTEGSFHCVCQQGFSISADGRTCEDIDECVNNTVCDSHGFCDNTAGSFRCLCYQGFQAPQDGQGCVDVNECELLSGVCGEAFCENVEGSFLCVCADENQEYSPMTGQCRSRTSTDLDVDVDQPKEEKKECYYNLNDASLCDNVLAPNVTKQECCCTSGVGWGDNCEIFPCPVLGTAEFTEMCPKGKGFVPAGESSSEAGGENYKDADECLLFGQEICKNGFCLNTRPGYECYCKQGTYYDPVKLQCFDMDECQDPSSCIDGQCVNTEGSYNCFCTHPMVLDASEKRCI

(E) hGARP, Cell-associated proTGFb1 (KD) [1] | (F) hLRRC33, Cell-associated proTGFb1 (KD) [2] | (C) hLTBP3, Matrix-associated proTGFb1 (KD) [3] | (B) hLTBP1, Matrix-associated proTGFb1 (KD) [4] | Molecule | Kd [5] | (H) G/D (fold bias) [5] | Kd [6]
7.01E−09 | 7.75E−10 | 1.83E−10 | 1.57E−10 | Ab12: monoclonal antibody; VH SEQ ID NO: 237, VL SEQ ID NO: 241 (antibody, V domains shown) VH: QVQLVESGGGVVQPGRSLRLSCAASGFTFSDYAMVWVRQAPGKGLEWVSAISGSGFTTYYADSVKGRFTISRDNSKNTLYLQMNSLRAEDTAVYYCARVSSGHWDFDYWGQGTLVTVSS VL: DIQLTQSPSSLSASVGDRVTITCRASQSISSYLNWYQQKPGKAPKLLIYAASNLQSGVPSRFSGSGSGTDFTLTISSLQPEDFATYYCQQTYTVPLTFGGGTKVEIK | 3.89 nM | 22.897 fold | 0.17 nM
1.12E−08 | 6.92E−10 | 1.56E−10 | 1.89E−10 | Ab19: monoclonal antibody; VH SEQ ID NO: 250, VL SEQ ID NO: 241 (antibody, V domains shown) VH: QVQLVESGGGVVQPGRSLRLSCAASGFTFSSFAMTWVRQAPGKGLEWVSAISGSGAATYFADSVKGRFTISRDNSKNTLYLQMNSLRAEDTAVYYCARVSSGHWDFDEWGQGTLVTVSS VL: DIQLTQSPSSLSASVGDRVTITCRASQSISSYLNWYQQKPGKAPKLLIYAASNLQSGVPSRFSGSGSGTDFTLTISSLQPEDFATYYCQQTYTVPLTFGGGTKVEIK | 5.95 nM | 34.47 fold | 0.172 nM
